Data on 1 molecule can be found in PMC6210652, “Virus Sensor RIG-I Represses RNA Interference by Interacting with TRBP through LGP2 in Mammalian Cells”.

What all share (assay): EMSA; 3 uM protein, 0.5 nM siRNA, 1.5 mM Mg2+; 20 mM Tris pH 8.0, 1.5 mM MgCl2, 50 mM NaCl, 1.5 mM DTT, 100 ng/uL sonicated salmon sperm DNA, 5% glycerol, 0.4 U/mL RNasin; 30 min on ice; 9% PAGE in 0.25x TBE
Details in all cases: protein: recombinant; label: 5'-32P on guide strand; siRNA duplex 21-nt strands, 19 bp, 3' overhangs 2 nt on both strands
(Mobility shift assays separate free from complexed probe on a gel.)

One series concerns the target T1, RIG-I (UniProt O95786 1-925).
T1 sequence: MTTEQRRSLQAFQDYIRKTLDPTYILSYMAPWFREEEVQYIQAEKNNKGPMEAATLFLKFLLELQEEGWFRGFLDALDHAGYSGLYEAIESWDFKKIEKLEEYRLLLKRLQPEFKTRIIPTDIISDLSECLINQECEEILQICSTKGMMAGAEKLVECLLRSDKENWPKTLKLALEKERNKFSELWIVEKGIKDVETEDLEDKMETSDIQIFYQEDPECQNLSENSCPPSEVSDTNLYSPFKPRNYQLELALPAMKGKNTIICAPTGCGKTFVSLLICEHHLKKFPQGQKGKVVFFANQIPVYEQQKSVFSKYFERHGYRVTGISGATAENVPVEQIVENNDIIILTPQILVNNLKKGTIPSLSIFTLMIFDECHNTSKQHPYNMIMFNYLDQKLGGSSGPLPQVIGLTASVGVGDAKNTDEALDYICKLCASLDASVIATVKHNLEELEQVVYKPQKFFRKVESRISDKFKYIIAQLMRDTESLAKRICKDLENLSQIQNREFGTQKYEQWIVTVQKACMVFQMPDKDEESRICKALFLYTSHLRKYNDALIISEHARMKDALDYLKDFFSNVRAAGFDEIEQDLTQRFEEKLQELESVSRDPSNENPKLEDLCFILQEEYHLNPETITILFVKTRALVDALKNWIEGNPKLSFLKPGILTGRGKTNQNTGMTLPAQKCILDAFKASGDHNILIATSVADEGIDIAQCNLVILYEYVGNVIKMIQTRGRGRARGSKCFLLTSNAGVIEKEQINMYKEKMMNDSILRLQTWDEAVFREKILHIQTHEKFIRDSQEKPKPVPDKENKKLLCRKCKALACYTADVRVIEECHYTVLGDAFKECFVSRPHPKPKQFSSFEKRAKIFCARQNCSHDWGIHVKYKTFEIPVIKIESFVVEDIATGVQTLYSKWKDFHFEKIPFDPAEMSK

Another series addresses T2, MDA5 (UniProt Q9BYX4 1-1025).
T2 sequence: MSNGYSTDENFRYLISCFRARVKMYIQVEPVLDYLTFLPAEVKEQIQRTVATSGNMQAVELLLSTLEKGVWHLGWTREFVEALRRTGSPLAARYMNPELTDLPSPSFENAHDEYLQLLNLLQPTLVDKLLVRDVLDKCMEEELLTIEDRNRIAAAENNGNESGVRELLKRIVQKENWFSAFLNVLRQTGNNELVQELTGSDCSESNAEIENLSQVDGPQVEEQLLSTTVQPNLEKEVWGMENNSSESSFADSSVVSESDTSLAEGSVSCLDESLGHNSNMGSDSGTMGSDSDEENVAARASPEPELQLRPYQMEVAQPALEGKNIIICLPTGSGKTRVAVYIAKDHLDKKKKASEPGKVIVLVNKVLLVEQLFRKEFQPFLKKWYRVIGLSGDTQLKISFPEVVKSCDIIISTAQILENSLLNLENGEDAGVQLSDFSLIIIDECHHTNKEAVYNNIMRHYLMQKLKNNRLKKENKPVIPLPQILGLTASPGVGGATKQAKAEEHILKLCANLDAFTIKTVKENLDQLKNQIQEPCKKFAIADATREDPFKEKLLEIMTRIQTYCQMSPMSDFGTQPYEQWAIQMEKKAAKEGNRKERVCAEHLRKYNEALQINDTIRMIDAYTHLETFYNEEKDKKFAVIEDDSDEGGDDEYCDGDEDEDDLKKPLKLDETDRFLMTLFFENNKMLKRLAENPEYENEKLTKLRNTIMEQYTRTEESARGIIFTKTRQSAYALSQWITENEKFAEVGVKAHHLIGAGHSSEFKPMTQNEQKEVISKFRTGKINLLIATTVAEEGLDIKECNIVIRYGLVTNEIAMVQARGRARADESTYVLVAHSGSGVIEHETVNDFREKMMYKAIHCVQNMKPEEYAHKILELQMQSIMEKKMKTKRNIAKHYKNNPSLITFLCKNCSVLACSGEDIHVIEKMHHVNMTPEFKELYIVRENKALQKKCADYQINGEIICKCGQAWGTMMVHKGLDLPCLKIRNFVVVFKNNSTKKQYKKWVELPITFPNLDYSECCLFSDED

The next series has as its target T3, LGP2 (UniProt Q96C10 1-678).
T3 sequence: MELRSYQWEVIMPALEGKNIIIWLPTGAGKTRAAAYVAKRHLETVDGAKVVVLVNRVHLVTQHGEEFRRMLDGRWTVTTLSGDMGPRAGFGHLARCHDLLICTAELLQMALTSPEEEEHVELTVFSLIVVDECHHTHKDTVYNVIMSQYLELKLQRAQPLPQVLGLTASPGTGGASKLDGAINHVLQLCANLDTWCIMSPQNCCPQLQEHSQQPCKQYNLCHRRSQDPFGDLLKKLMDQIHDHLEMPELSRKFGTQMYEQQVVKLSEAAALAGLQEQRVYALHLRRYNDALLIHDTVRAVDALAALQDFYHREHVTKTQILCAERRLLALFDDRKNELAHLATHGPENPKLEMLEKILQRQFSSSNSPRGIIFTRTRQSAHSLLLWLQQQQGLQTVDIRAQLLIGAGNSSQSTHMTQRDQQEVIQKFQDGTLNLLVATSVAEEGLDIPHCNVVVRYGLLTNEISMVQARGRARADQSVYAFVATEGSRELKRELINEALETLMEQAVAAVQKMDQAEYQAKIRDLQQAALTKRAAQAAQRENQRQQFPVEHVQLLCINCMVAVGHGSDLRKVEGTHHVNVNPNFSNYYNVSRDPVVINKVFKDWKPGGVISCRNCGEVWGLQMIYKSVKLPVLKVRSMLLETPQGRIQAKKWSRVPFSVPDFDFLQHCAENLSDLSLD

B1: siLuc-36 (dsRNA)
RNA 1: UCUUCCAGCGGAUAGAAUGGC
RNA 2: CAUUCUAUCCGCUGGAAGAUG
With B1, the binding result with RIG-I is listed as “binds”; with MDA5, “no binding”; with LGP2, “binds”.
